Assay results: article PMC4831154, “Expression and characterization of a novel 1,3-regioselective cold-adapted lipase from Rhizomucor endophyticus suitable for biodiesel synthesis” (Biotechnology for Biofuels, 2016)

Tests used:
Test in all cases: purified protein
Type in all cases: biochemical, Mucor endophyticus
Conditions in all cases: 50 mM citrate buffer pH 6.0, 40 °C, 5 min
[1] = substrate: CCCCCCCCCCCC(=O)Oc1ccc([N+](=O)[O-])cc1
[2] = substrate: CCCCCCCC(=O)Oc1ccc([N+](=O)[O-])cc1
[3] = substrate: CCCCCCCCCCCCCC(=O)Oc1ccc([N+](=O)[O-])cc1

B1: ReLipA (Mucor endophyticus) (protein)
chain: PAAGTKGETSSAAAPHNNATMTASSYILPPIIPSRTKPGNPAFKGDVNAEAESIAKNKKWYEDHGGNFKNITKRDTETVGGMTMDLPANAPPVTTSTGSGVVTASAAQIANFKLYAGIASTAYCRGVVPLGSWTCNNCLKYVPDGKLLVTFSSLLADTNGFVLRSDSQKTIHLVFRGTNSIRSAITDLIFDLATYSPVSGAKVHRGFLASYKEVVNTYFPVVQAQLTAYPSYKVVISGHSLGGAQALLAGMDLYQRDKRLSPSNLSIYTVGCPRVGNPAFAYYVDSTGIPFSRSVNDRDIVPHVPPQAFGYLHPGVEAWDISSRVQICTANIETNKCSNSIVPFTSFVDHLTYYGINEGLCL
notes: ORF 1167 bp; SP-Sepharose purified
Km [1]: 640 ± 60 µM | kcat/Km [1]: 416 M⁻¹ s⁻¹ | Km [2]: 2300 ± 210 µM | kcat/Km [2]: 387 M⁻¹ s⁻¹ | Km [3]: 100 ± 10 µM | kcat/Km [3]: 1790 M⁻¹ s⁻¹
